Data taken from patent US20250026813A1 (published 2025).

Assays:
[1] = target: SARS-CoV-2 spike N-terminal domain (NTD), antigen of Example 10 (SARS-CoV-2, UniProt P0DTC2 14-305)
[2] = target: SARS-CoV-2 spike receptor binding domain (RBD), antigen of Example 10 (SARS-CoV-2, UniProt P0DTC2 319-541)
[3] = target: Receptor binding domain (Neil King, University of Washington) (SARS-CoV-2, UniProt P0DTC2 328-531)
[4] = target: SARS-CoV-2 spike protein receptor binding domain (RBD) (SARS-CoV-2, UniProt P0DTC2 319-541)
[5] = target: SARS-CoV-2 spike protein N-terminal domain (NTD) (SARS-CoV-2, UniProt P0DTC2 14-305)
[6] = target: SARS-CoV-2 S2 spike domain (Sino Biological) (SARS-CoV-2, UniProt P0DTC2 686-1213)
[7] = target: SARS-CoV-2 spike protein trimer, wild type (FIG. 2A sequence) with C-terminal trimerisation domain (SARS-CoV-2, UniProt P0DTC2 14-1213)

Binder | Kd [1] [nM] | Kd [2] [nM] | Kd [4] [nM] | Kd [5] [nM] | other results
IMPI-055 (antibody, V domains shown) VH: QVQLVQSGAEVKKPGASVKVSCKASGYTFTSYDINWVRQATGQGLEWMGWMNPNSGNTGYAQKFQGRVTMTRDTSINTAYMELSSLRSEDTAVYFCARGGRYCSDVTCYSGEPFDYWGQGTLVTVSS VL: EIMLTQSPDFQSVTPKEKVTITCRASQSIGSSLHWYQQKPDQSPKLLIKFASQSISGVPSRFSGSGSGTDFTLTINSLEAEDAAAYYCHQSSSLPHTFGPGTKVEIK [IMPI-055, listing 1 of 2 here] | 1360 | 1.85 |  |  | 
IMPI-055 (antibody, V domains shown) VH: QVQLVQSGAEVKKPGASVKVSCKASGYTFTSYDINWVRQATGQGLEWMGWMNPNSGNTGYAQKFQGRVTMTRDTSINTAYMELSSLRSEDTAVYFCARGGRYCSDVTCYSGEPFDYWGQGTLVTVSS VL: EIMLTQSPDFQSVTPKEKVTITCRASQSIGSSLHWYQQKPDQSPKLLIKFASQSISGVPSRFSGSGSGTDFTLTINSLEAEDAAAYYCHQSSSLPHTFGPGTKVEIK [IMPI-055, listing 2 of 2 here] |  |  |  |  | Kd [3]: < 1 nM
IMPI-024 (antibody, V domains shown) VH: EVQLVQSGAEVKKPGESLKISCKGSGYSFTSYWIGWVRQMPGKGLEWMGIIYPGDSDTRYSPSFQGQVTISADKSISTAYLQWSSLKASDTAMYYCVRSYNWNYFDYWGQGTLVTVSS VL: AIQLTQSPSSLSASVGDRVTITCRASQGISSGLAWYQQKAGKAPKLLIYDVSSLESGVPSRFSGSGSGTDFTLTISSLQPEDFATYYCQQFLSYPWTFGQGTKVEIK |  |  | 1.16 | 660 | 
IMPI-068 (antibody, V domains shown) VH: QVQLVESGGDVVQPGRSLRLSCAASGFTFSRYGMHWVRQAPGKGLEWVAVISYDGSDKYYADSVKGRFTISRDNSKNTLYLQMNSLRAEDTAVYYCAKQLPLYYYYYGMDVWGQGTTVTVSS VL: AIQLTQSPSSLSASVGDRVTITCRASQGISSALAWYQQKPGKAPNLLIYDASSLESGVPSRFSGSGSGTDFTLTISSLQPEDFATYYCQQFNIYPHTFGPGTKVDIK | 2570 | 9.47 |  |  | 
IMPI-027 (antibody, V domains shown) VH: QVQLQESGPGLVKPSQTLSLTCTVSGGSISSYGYYWNWIRQHPGKGLEWIGYIYYSGSTYYNPSLKSRVTISVDTSKNQLSLRLNSVSAADTAVYYCARDFGGNSNYFDYWGQGTLVTVSS VL: AIQLTQSPSSLSASVGDRVTITCRTSQGISSALAWYQQKPGKAPKLLIYDASSLESGVPSRFSGSGSGTDFTLTISSLQPEDFATYYCQQFNSYPLTFGGGTKVEIK |  |  | 6.31 | 2910 | 
IMPI-033 (antibody, V domains shown) VH: QVQLQESGPGLVKPSQTLSLTCTVSGGSISSYGYYWSWIRQHPGKGLEWIGYIYYSGSTYYNPSLKSRVTMSVDTSKNQLSLRLNSVSAADTAVYYCARDFGGNSNYFDYWGQGTLVTVSS VL: AIQLTQSPSSLSASVGDRVTITCRASQGISSALAWYQQKPGKAPNLLIYDASSLESGVPSRFSGSGSGTDFTLTISSLQPEDFATYYCQQFNSSPLTFGGGTKVEIK |  |  | 3.02 | 1820 | 
IMPI-038 (antibody, V domains shown) VH: QVQLVESGGGVVQPGRSLRLSCAASGFTFSSYGMHWVRQAPGKGLEWVAVISYDGSDKYYADSVKGRFTISRDNSKNTLYLQMNSLRAEDTAVYYCAKTVAGYYYYYYGMDVWGQGTTVTVSS VL: DIQMTQSPSSVSASVGDRVTVTCRASQDISSWLAWFQQKPGKAPKFLIYDASNLENGVPSRFSGSGSGTDFTLTISSLQPEDFATYYCQQAKSFPWTFGQGTKVEIN |  |  | 0.826 | 475 | 
IMPI-067 (antibody, V domains shown) VH: QVQLVESGGGVVQPGTSLRLSCAASGFTFNSFGMHWVRQAPGKGLEWVAVISYDGSSKYYADSVKGRFTISRDNSKNTLYLQMNSLRAEDTAVYYCAKDEGDYDDYYYGMDVWGQGTTVTVSS VL: EIVLTQSPGSLSLSPGERATLSCRASQSLSSRYLAWYHQKPGQAPRLLIYGASSRATGIPDRFSGSGSGTDFTLTISGLEPEDFAVYYCQQYGNSITFGGGTKVEIK | 84.5 |  |  |  | 
IMPI-059 (antibody, V domains shown) VH: EVQLVESGGGLIQPGGSLRLSCAASGFTVSSIYMSWVRQAPGKGLEWVSIIYSRGSTDYADSVKGRFTISRDISKNTLYLQMNSLRAEDTAVYYCARDGTMVRGVHAFDIWGQGTMVTVSS VL: DIQMTQSPPSLSASIGDRVTITCQASQDISNYLNWYQQKPGKAPKLLIYDASNLETGVPSRFSGSGSGTDFTLTISNLQPEDIVTYYCQQYDNLPSSFGQGTKLEIK | 1650 | 2.3 |  |  | 
IMPI-013 (antibody, V domains shown) VH: EVQLVESGGGLVQPGRSLRLSCAASGFTFDDYAMHWVRQTPGKGLEWVSGISWNSGSIGYADSVKGRFTISRDNAKNSLYLQMNSLRAEDTALYYCTKDLGLGIGFYYGLDVWGQGTTVTVSS VL: AIQMTQSPSSLSTSVGDRVTITCRASQGIRNDLGWYQLKPGKAPKLLIYDASTLQSGVPSRFSGSGSGTDFTLTISSLEPEDLATYYCLHHYTYPWTFGHGTKVELK |  |  |  |  | Kd [6]: 0.126 nM; Kd [7]: 0.67 nM
IMPI-006 (antibody, V domains shown) VH: QLQLQESGPGLVKPSETLSLTCTVSGGSISNSNYYWGWIRQPPGKGLEWIGSIYYSGRTYYNPSLKSRVTISVDTSKNQFSLKLSSVTAADTAVYYCARMGLLWFGEFYGMDVWGQGTTVTVSS VL: DIQMTQSPSSLSASVGDRVTITCRASQGISSWLAWYQQKPEKAPKSLIYDASSLQRGVPSRFSGSGSGTDFTLTISSLQPEDFASYYCQQYNSYPLTFGGGTRVEIK |  |  |  |  | Kd [3]: < 1 nM
IMPI-042 (antibody, V domains shown) VH: EVQLVESGGGLIQPGGSLRLSCAASGLTVSSNYMSWVRQAPGKGLEWVSIIYSGGSTYYADSVKGRFTISRDNSKNTLYLQMNSLRAEDTAVYYCARLGGYYYYGMDVWGQGTTVTVSS VL: DIQMTQSPSSLSASVGERVTITCQASQDIRNYLNWYQKKPGKAPKLLIYDSSNLETGVPSRFSGGGSGTDFTFTISSLQPEDIATYYCQQYDNLPITFGQGTRLEIK |  |  | 1.87 | 662 | 
IMPI-054 (antibody, V domains shown) VH: EVQLVESGGGLIQPGGSLRLSCAASGLTVSSNYMSWVRQAPGKGLEWVSIIYSGGSTYYADSVKGRFTISRDNSKNTLYLQMNSLRAEDTAVYYCARLGGYYYYGMDVWGQGTTVTVSS VL: DIQMTQSPSSLSASVGERVTITCQASQDIRNYLNWYQKKPGKAPKLLIYDSSNLETGVPSRFSGSGSGTDFTFTISSLQPEDIATYYCQQYDNLPITFGQGTRLEIK | 602 | 2.06 |  |  | 
IMPI-029 (antibody, V domains shown) VH: EVQLVESGGGLIQPGGSLRLSCAASGVTVSSNYMNWVRQAPGKGLEWVSVIYSGGSTYYADSVKGRFTISRDNSKNTLFLQMNSLRAEDSAVYYCARDLGPYGVDVWGQGTTVTVSS VL: DIQLTQSPSFLSASVGDRVTITCWASQGISSYLAWYQQKPGKAPKLLIYAASTLQSGVPSRFSGSGSGTEFTLTISSLQPEDFATYYCQELNSYPLTFGQGTRLEIK [IMPI-029, listing 1 of 2 here] |  |  | 0.446 | 219 | 
IMPI-029 (antibody, V domains shown) VH: EVQLVESGGGLIQPGGSLRLSCAASGVTVSSNYMNWVRQAPGKGLEWVSVIYSGGSTYYADSVKGRFTISRDNSKNTLFLQMNSLRAEDSAVYYCARDLGPYGVDVWGQGTTVTVSS VL: DIQLTQSPSFLSASVGDRVTITCWASQGISSYLAWYQQKPGKAPKLLIYAASTLQSGVPSRFSGSGSGTEFTLTISSLQPEDFATYYCQELNSYPLTFGQGTRLEIK [IMPI-029, listing 2 of 2 here] |  |  |  |  | Kd [3]: < 1 nM
IMPI-060 (antibody, V domains shown) VH: EVQLVESGGGLIQPGGSLRLSCAASGVTVSSNYMSWVRQAPGKGLEWVSVIYSGGSTFYADSVKGRFTISRDNSKNTLYLQMNSLRAEDTAVYYCARDLSYYGMDVWGQGTTVTVSS VL: DIQLTQSPSFLSASVGDRVTITCWASQGISSYLAWYQQKPGKAPKLLIYAASTLQSGVPSKFSGSGSGTEFTLTISSLQPEDFATYYCQQLNSYPSSFGQGTKLEIK |  | 141 |  |  | 
IMPI-056 (antibody, V domains shown) VH: EVQLVESGGGLIQPGGSLRLSCAASGLTVSSNYMNWVRQAPGKKLEWVSVIYSGGSTFYADSVRGRFTISRDNSKNTLFLQMNSLRAEDSAVYYCARDLGPYGVDVWGQGTTVTVSS VL: DIQLTQSPSFLSASVGDRVTITCWASQGISSYLAWYQQKPGKAPKLLIYAASTLQSGVPSRFSGSGSGTEFTLTISSLQPEDFATYYCQQLNSYPLTFGQGTRLEIK [IMPI-056, listing 1 of 2 here] | 682 | 1.59 |  |  | 
IMPI-056 (antibody, V domains shown) VH: EVQLVESGGGLIQPGGSLRLSCAASGLTVSSNYMNWVRQAPGKKLEWVSVIYSGGSTFYADSVRGRFTISRDNSKNTLFLQMNSLRAEDSAVYYCARDLGPYGVDVWGQGTTVTVSS VL: DIQLTQSPSFLSASVGDRVTITCWASQGISSYLAWYQQKPGKAPKLLIYAASTLQSGVPSRFSGSGSGTEFTLTISSLQPEDFATYYCQQLNSYPLTFGQGTRLEIK [IMPI-056, listing 2 of 2 here] |  |  |  |  | Kd [3]: < 1 nM
IMPI-047 (antibody, V domains shown) VH: EVQLVESGGGLIQPGGSLRLSCAASGFTVSSNYMNWVRQAPGKGLEWVSVIYSGGSTYYADSVKGRFTISRDNSKNTLYLQMNSLRTEDTAVYYCARDLVAYGMDVWGQGTTVTVSS VL: DIQLTQSPSFLSASVGDRVTITCWASQGISSYLAWYQQKPGKAPKVLIYAASTLQSGVPSRFSGSGSGTEFTLTISSLQPEDFATYYCQLLNSNPLTFGGGTKVEIK |  |  | 6.65 | 2320 | 
